# From IntAct's records for PubMed 20007317
# B1: SAGA complex subunit SGF11 (Saccharomyces cerevisiae), Q03067 (parent)
# chain: MTEETITIDSISNGILNNLLTTLIQDIVARETTQQQLLKTRYPDLRSYYFDPNGSLDINGLQKQQESSQYIHCENCGRDVSANRLAAHLQRCLSRGARR
# partner: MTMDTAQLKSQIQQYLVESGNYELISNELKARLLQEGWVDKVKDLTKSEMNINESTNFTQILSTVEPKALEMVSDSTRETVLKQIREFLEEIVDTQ
# Variants of: B1
# Conditions: with sus1_yeast SUS1, Q6WNK7
row,effect of a mutation on the interaction,Variant
1,decreasing interaction,N18A
2,decreasing interaction,I15A
3,decreasing interaction,L19A
